The stoichiometry N is the number of molecules, sites or subunits per partner or assembly. In general, Km refers to the substrate concentration at which the rate is half of its maximum. Broadly, the kcat is the number of substrate molecules converted per active site and unit of time at saturation.

The target in series [1] is Catechol 1,2-dioxygenase from Paracoccus sp. MKU1 (Paracoccus sp. MKU1). Kind of series: SEC; purified C12O on Sephacryl S-300 HR, 50 mM Tris-HCl pH 8.5, 1 ml/min, A280; calibrated with NativeMark standards (20-1,236 kDa). Background: SEC sorts molecules by how far they enter the pores of the column.
The next series deals with Oc1ccccc1O. Kind of series: purified protein. The conditions noted are these: 50 mM Tris-HCl pH 7.5, 37 °C, 20 min, catechol 0-200 µM, substrate O2 from air.

In series [1], “Catechol 1,2-dioxygenase from Paracoccus sp. MKU1 (enzyme)” had a stoichiometry N of 3. Regarding “Catechol 1,2-dioxygenase (C12O) (Paracoccus sp. MKU1)”, in the series on Oc1ccccc1O, the Michaelis-Menten constant (Km) was found to be 12.89 µM and the catalytic constant (kcat) was found to be 199.5 s⁻¹.
